Laboratory results taken from patent US20210040194A1 (AstraZeneca / MedImmune, published 2021).
Changes are numbered by the printed parent chain.

How the values were obtained:
Human ANG-2 (huAng2) [1] = molecular target: T1, Human ANG-2 (huAng2) (human, UniProt O15123 19-496, limits assumed); assay: KinExA equilibrium, standard affinity model (ref [Ligand])
T1 construct: also called human Ang2-biotin
T1 sequence (looked up): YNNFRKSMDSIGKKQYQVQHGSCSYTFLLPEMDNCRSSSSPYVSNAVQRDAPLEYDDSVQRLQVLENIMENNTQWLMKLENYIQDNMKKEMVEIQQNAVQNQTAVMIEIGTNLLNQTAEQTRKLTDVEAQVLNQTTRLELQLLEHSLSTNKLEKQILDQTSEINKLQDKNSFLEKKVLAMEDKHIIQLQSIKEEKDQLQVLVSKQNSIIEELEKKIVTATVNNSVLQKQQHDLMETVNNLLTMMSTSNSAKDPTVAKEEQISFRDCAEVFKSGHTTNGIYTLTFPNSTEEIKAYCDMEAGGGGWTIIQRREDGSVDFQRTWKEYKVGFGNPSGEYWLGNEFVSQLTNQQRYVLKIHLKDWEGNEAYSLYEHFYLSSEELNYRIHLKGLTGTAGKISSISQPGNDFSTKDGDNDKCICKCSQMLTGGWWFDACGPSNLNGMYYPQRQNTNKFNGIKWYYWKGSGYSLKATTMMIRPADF
Protocol: (§1) Human ANG-2 (huAng2) protein was coated onto UltraLink® Biosupport beads (PIERCE, Rockford, Ill.) at concentrations of 5 mg/mL and 30 mg/mL in coating buffer (50 mM sodium carbonate buffer, pH 9). Coated beads were then separated (gentle pulse spin) from unreacted huAng2 protein solution, and blocked with 1M Tris, pH 8, containing BSA at 10 mg/mL) for approximately 15 minutes at room temperature. After this, the bead slurry was spun to remove the blocking solution, and then the block step was repeated for approximately 2 hours using fresh block buffer, and stored at 4° C. until used. Prior to use, the huAng2-coated beads were transferred to a bead vial, resuspended in approximately 27 mLs of instrument buffer (HBS-P buffer, pH 7.4; contains 10 mM HEPES, 0.15M NaCl, 0.005% P20+0.02% NaN3), and affixed to the KinExA instrument. […] These concentrations of bispecific antibody were chosen to allow measurements to be made under both receptor- and KD-controlled conditions, which would allow for more rigorous estimations of reagent activity and affinity, respectively. Two-fold serial dilutions of huAng2 protein were then titrated across nine of the tubes containing the bispecific solutions, followed by 10-fold-dilutions across two more tubes, leaving one tube as the bispecific-only, “zero” control. […]

Human ANG-2 (huAng2) [2] = molecular target: T1, Human ANG-2 (huAng2); assay: cell-based or functional assay
cyno Ang2 = molecular target: T2, cyno Ang2 (cyno, UniProt A0A2K5VNX6 19-496); assay: cell-based or functional assay
T2 sequence: T1 sequence (looked up) with E258G, I279V, F284L, I291V, G410A, A468G, D477G

mouse Ang2 = molecular target: T3, mouse Ang2 (mouse, UniProt O35608 19-496, limits assumed); assay: cell-based or functional assay
T3 sequence (looked up): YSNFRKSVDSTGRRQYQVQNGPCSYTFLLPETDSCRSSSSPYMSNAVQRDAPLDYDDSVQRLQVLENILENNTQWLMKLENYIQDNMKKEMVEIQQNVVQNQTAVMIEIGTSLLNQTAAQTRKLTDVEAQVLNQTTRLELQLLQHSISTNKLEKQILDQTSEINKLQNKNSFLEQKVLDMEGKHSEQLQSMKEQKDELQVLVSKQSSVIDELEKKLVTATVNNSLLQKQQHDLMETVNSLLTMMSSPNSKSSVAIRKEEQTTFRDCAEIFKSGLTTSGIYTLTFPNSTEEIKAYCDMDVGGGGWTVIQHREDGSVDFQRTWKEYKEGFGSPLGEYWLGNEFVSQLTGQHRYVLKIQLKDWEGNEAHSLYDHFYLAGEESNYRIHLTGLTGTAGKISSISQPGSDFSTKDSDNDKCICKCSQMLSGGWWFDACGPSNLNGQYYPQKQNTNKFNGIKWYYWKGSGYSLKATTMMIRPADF

Human ANG-2 (huAng2) [3] = molecular target: T1, Human ANG-2 (huAng2); assay: KinExA equilibrium, alternate model (ref [IgG])
Protocol: as §1

B1: BiS3Ab-VEGF H1RK-ANG-2 (bispecific antibody, human IgG1, kappa)
heavy: not shown
light: EIVLTQSPATLSLSPGERATLSCRASQSVHSSYLAWYQQKPGQAPRLLIYGASSRATGIPDRFSGSGSGTDFTLTISRLEPEDFAVYYCQQSYRTPSFGQGTRLEIKRTVAAPSVFIFPPSDEQLKSGTASVVCLLNNFYPREAKVQWKVDNALQSGNSQESVTEQDSKDSTYSLSSTLTLSKADYEKHKVYACEVTHQGLSSPVTKSFNRGEC
notes: Full-length IgG (Fab arm anti-VEGF-A) with an anti-ANG-2 scFv linked to the C-terminus of each heavy chain (BiS3 format); also called BiSAb-VEGF H1RK-ANG-2; Bs3Ab-VEGF-Ang2
Human ANG-2 (huAng2) [1]
  Kd: 0.0233 nM
Human ANG-2 (huAng2) [2]
  Hu pTie2 EC50 (nM), Hek293-Tie2 cells: 2.29 nM
Cyno Ang2
  Cyno pTie2 EC50 (nM): 3.47 nM
Mouse Ang2
  Mu pTie2 EC50 (nM): 12.2 nM
Human ANG-2 (huAng2) [3]
  Kd: 0.00435 nM
